Results on three substances are retold here after paper PMC11734622.

This assay deals with HA-tagged human GABARAP [human]. In words: co-immunoprecipitation (anti-HA IP), immunoblot quantification. To be noted: 2 h, RAW 264.7 LRRK2 KO cells, read off a plot. In general terms: A western blot detects proteins with antibodies after separation by electrophoresis.

As to “Halo-tagged human LRRK2 (WT) mutant W109A; L112A [human] / HA-tagged human GABARAP [human] chain 1 W109A, chain 1 L112A”, the response reads like this: (DMSO, parent: 1) 0.25 A.U; (DMXAA 100 µg/mL, parent: 3.5) 0.9 A.U.

For “Halo-tagged human LRRK2 (WT) mutant W109A; L112A; W875A; I878A [human] / HA-tagged human GABARAP [human] chain 1 W109A, chain 1 L112A, chain 1 W875A, chain 1 I878A”, the response (DMSO, parent: 1) amounted to 0.4 A.U and the response (DMXAA 100 µg/mL, parent: 3.5) stood at 0.85 A.U.

On to “Halo-tagged human LRRK2 (WT) mutant W875A; I878A [human] / HA-tagged human GABARAP [human] chain 1 W875A, chain 1 I878A”, for which the response runs as follows: (DMSO, parent: 1) 1.1 A.U; (DMXAA 100 µg/mL, parent: 3.5) 1.7 A.U.
